Test system: K4 kissing-loop RNA reporter
Experiment: apparent KD of K4 kissing-loop reporter; higher = weaker reporter binding
Settings: Eterna round: R107
Protocol: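 RNA-MaP round R107: designed RNA switches with theophylline, tryptophan, arginine or FMN aptamers are transcribed on-chip within common flanks. They are titrated with a labelled K4 kissing-loop RNA reporter in RNA-MaP buffer (100 mM Tris pH 7.5, 80 mM KCl, 4 mM MgCl2), without ligand or with the indicated ligand. Median apparent KD per design.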

[1] = input ligand: theophylline 20 uM
[2] = input ligand: tryptophan 2.4 mM
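Further: bound reporter read as fluorescence of individual clusters on recovered sequencing chips by microscopy, with normalized cluster intensities fitted with a binding model.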

UCAGAGAACGAAGGAUAUUGACCUGUUUUAUGCUAUGAGUGAUGUUCUUAGUAUCAGCGAGAUGAUCAAGAAGGUCGGGUUCGAC [theeternabot_sameState_KL_FMN_B_48]
apparent KD of K4 kissing-loop reporter (input ligand: FMN 200 uM): 0.125 µM | apparent KD of K4 kissing-loop reporter (input ligand: arginine 13.2 mM): 0.174 µM | apparent KD of K4 kissing-loop reporter (input ligand: none): 0.197 µM | apparent KD of K4 kissing-loop reporter [1]: 0.183 µM | apparent KD of K4 kissing-loop reporter [2]: 0.152 µM

UUAAUAUUGUCGGCCGCCACUGGAUAGUAAUUUGUAUAAUCUAUUUCAAAGUGAUGUUUUGAGUCCAGGACCGGGACAUUUGAUA [JR_Nu_ExcTryptoB_Sub030]
apparent KD of K4 kissing-loop reporter (input ligand: FMN 200 uM): 0.503 µM | apparent KD of K4 kissing-loop reporter (input ligand: arginine 13.2 mM): 0.363 µM | apparent KD of K4 kissing-loop reporter (input ligand: none): 0.455 µM | apparent KD of K4 kissing-loop reporter [1]: 0.406 µM | apparent KD of K4 kissing-loop reporter [2]: 0.297 µM

GGUAGCAUGGCGGCCGCCACUUUAUACUCGGUCGUUGGCGUCGUAAGUGAUGUUUACAUUCGCAAAAGGACCGGGCCAUGCUACC
apparent KD of K4 kissing-loop reporter (input ligand: FMN 200 uM): 0.0978 µM | apparent KD of K4 kissing-loop reporter (input ligand: arginine 13.2 mM): 0.0566 µM | apparent KD of K4 kissing-loop reporter (input ligand: none): 0.0812 µM | apparent KD of K4 kissing-loop reporter [1]: 0.123 µM | apparent KD of K4 kissing-loop reporter [2]: 0.133 µM

UUUCGCUUCGUCUGAUAUAAUUGGCCAGAAGGAGCGGUAGAAUUACCAGGUAGGUCGCUGGCCCAGUGAUGUUGGGACUAGCGUG [Isrianve]
apparent KD of K4 kissing-loop reporter (input ligand: FMN 200 uM): 0.118 µM | apparent KD of K4 kissing-loop reporter (input ligand: arginine 13.2 mM): 0.103 µM | apparent KD of K4 kissing-loop reporter (input ligand: none): 0.104 µM | apparent KD of K4 kissing-loop reporter [1]: 0.107 µM | apparent KD of K4 kissing-loop reporter [2]: 0.0941 µM

UUAGGAGUGGAAGGAUAUCCUGGUGUGGGUGAUGUUAGUGAUGUUGAAAGUGCAGUGAUGUUGUGCGGAGAAGGUCCGGUGUUGA [BDazzled - #8 - Exc. FMN B]
apparent KD of K4 kissing-loop reporter (input ligand: FMN 200 uM): 0.147 µM | apparent KD of K4 kissing-loop reporter (input ligand: arginine 13.2 mM): 0.124 µM | apparent KD of K4 kissing-loop reporter (input ligand: none): 0.176 µM | apparent KD of K4 kissing-loop reporter [1]: 0.243 µM | apparent KD of K4 kissing-loop reporter [2]: 0.145 µM

CCUUCUCAUUUCCGUUAUCAUUGCCUUAGGAAGGAUAUCAUUAUUUUGAGAAGGUCCGUGGUCUAUUUUCCGAGUGAUGUUUGGU [theeternabot_exclusion_KL_FMN_A_45]
apparent KD of K4 kissing-loop reporter (input ligand: FMN 200 uM): 0.273 µM | apparent KD of K4 kissing-loop reporter (input ligand: arginine 13.2 mM): 0.226 µM | apparent KD of K4 kissing-loop reporter (input ligand: none): 0.311 µM | apparent KD of K4 kissing-loop reporter [1]: 0.277 µM | apparent KD of K4 kissing-loop reporter [2]: 0.248 µM

UCCUAGGUUCGUCGGCGAAAGCCCUGCGAAGGAGCGUGCGAAAGUACAGGUAGGUCGCGCAGUGAUGUUGCACCUAGGUAAUAAA [#07 K4 Arginine A Exclusion]
apparent KD of K4 kissing-loop reporter (input ligand: FMN 200 uM): 0.905 µM | apparent KD of K4 kissing-loop reporter (input ligand: arginine 13.2 mM): 0.191 µM | apparent KD of K4 kissing-loop reporter (input ligand: none): 0.319 µM | apparent KD of K4 kissing-loop reporter [1]: 0.892 µM | apparent KD of K4 kissing-loop reporter [2]: 0.375 µM

AAUUUAUUAUCUGAUACCAGACUUUUUCUUGUAUAUAAGUCAAGUGAUGUUUGACUUUUAGUCCCUUGGCAGCAGUAUUUUUUAA [JR_Nu_SSTheophyB_Sub027]
apparent KD of K4 kissing-loop reporter (input ligand: FMN 200 uM): 0.165 µM | apparent KD of K4 kissing-loop reporter (input ligand: arginine 13.2 mM): 0.149 µM | apparent KD of K4 kissing-loop reporter (input ligand: none): 0.168 µM | apparent KD of K4 kissing-loop reporter [1]: 0.123 µM | apparent KD of K4 kissing-loop reporter [2]: 0.155 µM

GGACGCCGGUCGGCCGCCACUCACAGCAGCCAGUGAUGUUGGAUUGUAGCGGAGUGAUGUUCCGAGAGGACCGGGACUGCAGUCU [Same State Tryptophan B GF 11]
apparent KD of K4 kissing-loop reporter (input ligand: FMN 200 uM): 0.161 µM | apparent KD of K4 kissing-loop reporter (input ligand: arginine 13.2 mM): 0.135 µM | apparent KD of K4 kissing-loop reporter (input ligand: none): 0.153 µM | apparent KD of K4 kissing-loop reporter [1]: 0.114 µM | apparent KD of K4 kissing-loop reporter [2]: 0.137 µM

AGAGAUAUAUGAGGAUAUGAGAUAGUUAAUGAGUGAGUUAUAGUGUAGUUUGGUUAGUGAUGUUAUUUAGAAGGCGUGAGUGAUG [reefmullin]
apparent KD of K4 kissing-loop reporter (input ligand: FMN 200 uM): 0.14 µM | apparent KD of K4 kissing-loop reporter (input ligand: arginine 13.2 mM): 0.0767 µM | apparent KD of K4 kissing-loop reporter (input ligand: none): 0.131 µM | apparent KD of K4 kissing-loop reporter [1]: 0.107 µM | apparent KD of K4 kissing-loop reporter [2]: 0.0833 µM

UCGCCAAAGUCGGCCGCCACUCCGGGCCCUAUAAAUGGGCGCAGUGAUGUUGCGGCUAGGCCUCUGAGGACCGGGACUUUGUAAA [Tiesgeza]
apparent KD of K4 kissing-loop reporter (input ligand: FMN 200 uM): 0.119 µM | apparent KD of K4 kissing-loop reporter (input ligand: arginine 13.2 mM): 0.0852 µM | apparent KD of K4 kissing-loop reporter (input ligand: none): 0.0689 µM | apparent KD of K4 kissing-loop reporter [1]: 0.0325 µM | apparent KD of K4 kissing-loop reporter [2]: 0.133 µM

AGGAUGUAGUGAUGUUAUAUAAGAAGUAAACGAGGACCGGUACGGCCGCCACUCGAAACGGCUACUAGCGCGUUGCGAGGUGUGC [ExTryptoA.Cf]
apparent KD of K4 kissing-loop reporter (input ligand: FMN 200 uM): 0.425 µM | apparent KD of K4 kissing-loop reporter (input ligand: arginine 13.2 mM): 0.475 µM | apparent KD of K4 kissing-loop reporter (input ligand: none): 0.808 µM | apparent KD of K4 kissing-loop reporter [1]: 0.51 µM | apparent KD of K4 kissing-loop reporter [2]: 0.402 µM

UGUGCCAAAUGUGAUACCAGCAUCCUGCAGUGAUGUUGCAUACGAGUGAUGUUCGUCCGAUGCCCUUGGCAGCGCAGUAGUUUGA [Same State Theophylline B GF 26]
apparent KD of K4 kissing-loop reporter (input ligand: FMN 200 uM): 0.264 µM | apparent KD of K4 kissing-loop reporter (input ligand: arginine 13.2 mM): 0.263 µM | apparent KD of K4 kissing-loop reporter (input ligand: none): 0.307 µM | apparent KD of K4 kissing-loop reporter [1]: 0.326 µM | apparent KD of K4 kissing-loop reporter [2]: 0.239 µM

CAUGAGUGAUGUUCGUGCGCUUGGUCGAAGCGAGGACCGGUACGGCCGCCACUCGCUAUGGCGGCAUCUACCAGUGAUGUUGGUG [Same State Tryptophan A GF 2]
apparent KD of K4 kissing-loop reporter (input ligand: FMN 200 uM): 0.241 µM | apparent KD of K4 kissing-loop reporter (input ligand: arginine 13.2 mM): 0.171 µM | apparent KD of K4 kissing-loop reporter (input ligand: none): 0.228 µM | apparent KD of K4 kissing-loop reporter [1]: 0.202 µM | apparent KD of K4 kissing-loop reporter [2]: 0.208 µM

ACCAAUUUACCGGCAGUAGUGAUGUUACUCCGAGGACCGGUACGGCCGCCACUCGCGAACGUAGGGUUUCUGACUCGAAGAGUCU
apparent KD of K4 kissing-loop reporter (input ligand: FMN 200 uM): 0.191 µM | apparent KD of K4 kissing-loop reporter (input ligand: arginine 13.2 mM): 0.127 µM | apparent KD of K4 kissing-loop reporter (input ligand: none): 0.171 µM | apparent KD of K4 kissing-loop reporter [1]: 0.149 µM | apparent KD of K4 kissing-loop reporter [2]: 0.171 µM

AGCGUCCCUACGGCCGCCACUGGGAGUGAUGUUCCCAGGUUAGGCCUGAGGAUACUAUGGAUCGCCAGGACCGGGUAGCGACCAA [Zaarin]
apparent KD of K4 kissing-loop reporter (input ligand: FMN 200 uM): 0.0934 µM | apparent KD of K4 kissing-loop reporter (input ligand: arginine 13.2 mM): 0.0718 µM | apparent KD of K4 kissing-loop reporter (input ligand: none): 0.0854 µM | apparent KD of K4 kissing-loop reporter [1]: 0.0972 µM | apparent KD of K4 kissing-loop reporter [2]: 0.0835 µM

AGAAGAGUGAUGUUCUUCUAUAUCUCAGAAGGAGCGACAUAAAUGUCAGGUAGGUCGCUGAGAUGAAAUCUCACACAGAUCUUGG [Arg A SS t8]
apparent KD of K4 kissing-loop reporter (input ligand: FMN 200 uM): 0.127 µM | apparent KD of K4 kissing-loop reporter (input ligand: arginine 13.2 mM): 0.149 µM | apparent KD of K4 kissing-loop reporter (input ligand: none): 0.154 µM | apparent KD of K4 kissing-loop reporter [1]: 0.182 µM | apparent KD of K4 kissing-loop reporter [2]: 0.109 µM

GCGCGGCAGGCGGCCGCCACUCUGACGAGCCACAGUGAUGUUGUGGUCGGAGAAACGUCUUCAUAGAGGACCGGGUUUGUUGUUC [Same State Typtophan A GF 25]
apparent KD of K4 kissing-loop reporter (input ligand: FMN 200 uM): 0.215 µM | apparent KD of K4 kissing-loop reporter (input ligand: arginine 13.2 mM): 0.186 µM | apparent KD of K4 kissing-loop reporter (input ligand: none): 0.226 µM | apparent KD of K4 kissing-loop reporter [1]: 0.189 µM | apparent KD of K4 kissing-loop reporter [2]: 0.177 µM

Reference: the supplement of paper PMC9170038
